Reference: patent US20200317768A1 (published 2020)
Changes are numbered by the printed parent chain.

Assays:
[1] = target: T1, human FcγRIIb constitutively expressed on MDCK cells (human, UniProt P31994 43-310); assay: cell-based or functional assay
T1 sequence (looked up): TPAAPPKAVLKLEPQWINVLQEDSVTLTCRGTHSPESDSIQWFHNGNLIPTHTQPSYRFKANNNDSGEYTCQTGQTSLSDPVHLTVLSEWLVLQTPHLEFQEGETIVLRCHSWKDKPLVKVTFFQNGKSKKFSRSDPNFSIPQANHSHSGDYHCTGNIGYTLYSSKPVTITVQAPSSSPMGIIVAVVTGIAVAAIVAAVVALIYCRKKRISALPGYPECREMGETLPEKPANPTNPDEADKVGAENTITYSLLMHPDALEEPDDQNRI

[2] = target: T2, Mouse latent myostatin (mouse, UniProt O08689 26-267; O08689 268-376); assay: SPR (BIACORE T200) 37C, pH 7.4, antibody captured by ProA/G
T2 construct: Latent form = complex of two propeptides and the mature dimer
T2 sequence 1: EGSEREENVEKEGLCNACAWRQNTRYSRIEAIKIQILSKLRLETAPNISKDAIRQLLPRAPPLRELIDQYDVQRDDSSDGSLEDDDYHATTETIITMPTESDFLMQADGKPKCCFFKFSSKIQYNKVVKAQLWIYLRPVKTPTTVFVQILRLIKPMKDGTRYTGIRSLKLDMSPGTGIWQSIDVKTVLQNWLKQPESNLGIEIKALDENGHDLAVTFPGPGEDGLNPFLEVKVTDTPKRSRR
T2 sequence 2: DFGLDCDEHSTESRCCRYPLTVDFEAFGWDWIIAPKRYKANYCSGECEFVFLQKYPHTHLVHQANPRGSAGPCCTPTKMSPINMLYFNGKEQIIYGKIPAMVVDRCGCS
Experimental: (§1) ProA/G (Pierce) was immobilized onto all flow cells of a CM4 chip using an amine coupling kit (GE Healthcare). All antibodies and analytes were prepared in ACES pH7.4 or pH5.8 buffer containing 20 mM ACES, 150 mM NaCl, 1.2 mM CaCl₂, 0.05% TWEEN®) 20, 0.005% NaN₃. […] Human, cyno, and mouse latent myostatin was injected at 3.125 to 50 nM prepared by two-fold serial dilution, followed by dissociation. The sensor surface was regenerated each cycle with 10 mM Glycine HCl pH1.5. Binding affinity was determined by processing and fitting the data to a 1:1 binding model using BIACORE® T200 Evaluation software, version 2.0 (GE Healthcare).

[3] = target: T3, Cynomolgus monkey latent myostatin (cynomolgus monkey, UniProt Q95J86 25-266; Q95J86 267-375); assay: as above
T3 construct: Latent form = complex of two propeptides and the mature dimer; also called Cyno latent myostatin
T3 sequence 1: T2 sequence 1 with G2N, R5Q, E6K, A19T, R25K, Y26S, R59K, A107V, K140E, S173N
T3 sequence 2: T2 sequence 2
Experimental: as §1

[4] = target: T4, Human latent myostatin (human, UniProt O14793 25-266; O14793 267-375); assay: as above
T4 construct: also called human myostatin latent form
T4 sequence 1: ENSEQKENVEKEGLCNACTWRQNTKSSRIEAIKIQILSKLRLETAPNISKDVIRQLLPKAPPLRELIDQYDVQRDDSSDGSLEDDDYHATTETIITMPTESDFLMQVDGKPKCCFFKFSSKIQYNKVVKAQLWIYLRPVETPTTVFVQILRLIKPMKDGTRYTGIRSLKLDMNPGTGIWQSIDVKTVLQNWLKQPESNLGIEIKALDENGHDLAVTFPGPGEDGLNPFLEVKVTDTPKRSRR
T4 sequence 2: T2 sequence 2
Experimental: as §1

[5] = target: T5, human FcγRIIaH extracellular domain with C-terminal His-tag (human, UniProt P12318 34-217); assay: SPR (BIACORE); KD of SG1 / KD of variant;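 further: relative to parent M103205H795-SG1 carrying the SG1 human heavy chain constant region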
T5 construct: also called human FcgRIIaH; FcγRIIa (type H)
T5 sequence: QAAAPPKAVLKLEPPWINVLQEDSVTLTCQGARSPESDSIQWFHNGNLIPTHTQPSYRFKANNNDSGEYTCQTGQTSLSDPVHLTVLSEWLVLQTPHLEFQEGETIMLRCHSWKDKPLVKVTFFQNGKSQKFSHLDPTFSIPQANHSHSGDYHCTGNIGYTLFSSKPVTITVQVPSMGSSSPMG
Experimental: The kinetic analysis of interactions between these antibodies and FcγR was carried out using BIACORE® T200 or BIACORE® 4000 (GE Healthcare). HBS-EP+ (GE Healthcare) was used as the running buffer, and the measurement temperature was set to 25° C. A chip produced by immobilizing Protein A. Protein A/G or mouse anti-human IgG kappa light chain (BD Biosciences) onto a Series S Sensor Chip CM4 or CM5 (GE Healthcare) by the amine-coupling method was used. […] After the measurement, the antibody captured on the chip was washed off by allowing reaction with 10 mM glycine-HCl, pH1.5 and 25 mM NaOH so that the chip was regenerated and used repeatedly. The sensorgrams obtained as measurement results were analyzed by the 1:1 Langmuir binding model using the BIACORE® Evaluation Software to calculate the binding rate constant ka (L/mol/s) and dissociation rate constant kd (l/s), and the dissociation constant KD (mol/L) was calculated from these values. […] Regarding such interactions, KD values were calculated using the following 1:1 binding model described in BIACORE® T100 Software Handbook BR1006-48 Edition AE.
The behavior of interacting molecules according to the 1:1 binding model on BIACORE® can be described by Equation 1: Req=C·R max/(KD+C)+RI, wherein, Req is a plot of steady-state binding levels to analyte concentration. C is concentration, RI is bulk refractive index contribution in the sample, and Rmax is analyte binding capacity of the surface. When this equation is rearranged, KD can be expressed as Equation 2: KD=C·Rmax/(Req−RI)−C. KD can be calculated by substituting the values of Rmax, RI, and C into Equation 1 or Equation 2. From the current measurement conditions, RI=0, C=2 μmol/L can be used.

B1: MS1032LO06-SG1 (M103205H795-SG1/M103202L889-SK1) (antibody, human IgG1, kappa)
heavy: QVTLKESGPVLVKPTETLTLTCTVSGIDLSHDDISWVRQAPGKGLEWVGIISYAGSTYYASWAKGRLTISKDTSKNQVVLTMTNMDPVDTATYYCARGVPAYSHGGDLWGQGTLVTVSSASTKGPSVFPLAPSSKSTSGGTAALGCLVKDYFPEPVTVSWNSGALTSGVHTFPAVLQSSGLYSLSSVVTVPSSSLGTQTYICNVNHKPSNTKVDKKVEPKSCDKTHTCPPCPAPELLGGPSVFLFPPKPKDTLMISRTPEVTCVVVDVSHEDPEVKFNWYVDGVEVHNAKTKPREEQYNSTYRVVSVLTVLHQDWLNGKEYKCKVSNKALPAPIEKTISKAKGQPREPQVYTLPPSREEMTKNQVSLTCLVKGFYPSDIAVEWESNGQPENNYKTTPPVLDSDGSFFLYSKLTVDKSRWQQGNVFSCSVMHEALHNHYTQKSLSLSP
light: DIVMTQSPATLSLSPGERATLSCTSSQSVYHANWLSWFQQKPGQPPKLLIYWASTLAYGVPSRFSGSGSGTDFTLTISSLQPEDAATYYCAGGYGGGRYAFGQGTKVEIKRTVAAPSVFIFPPSDEQLKSGTASVVCLLNNFYPREAKVQWKVDNALQSGNSQESVTEQDSKDSTYSLSSTLTLSKADYEKHKVYACEVTHQGLSSPVTKSFNRGEC
notes: Anti-latent myostatin antibody
In the case of B1, the celluar uptake [1] is reported as 1 relative to SG1 (=1.00).

B2: MS_M103205H795-SG1/M103202L889-SK1 (antibody, human IgG1, kappa)
heavy: not shown
light: B1 light
notes: also called MS1032LO06-SG1
With B2 the Kd [2] was 0.299 nM, the Kd [3] was 0.343 nM and the Kd [4] was 0.285 nM.

B3: MS_M103205H795-SG1/M103202L889-SK1 (antibody, human IgG1, kappa)
heavy: not shown
light: B1 light
notes: Parent antibody of the Fc variants; also called MS1032LO06-SG1
In the case of B3, the “KD fold (SG1 = 1)” value [5] is reported as 1 fold.
